Measurements published in paper PMC5847621 (Nature Communications, 2018).

T1: VSV Gth, soluble form of the ectodomain of VSV glycoprotein G (residues 1-422) (Vesicular stomatitis virus (Mudd-Summer …, UniProt P0C2X0 17-438))
T1 sequence: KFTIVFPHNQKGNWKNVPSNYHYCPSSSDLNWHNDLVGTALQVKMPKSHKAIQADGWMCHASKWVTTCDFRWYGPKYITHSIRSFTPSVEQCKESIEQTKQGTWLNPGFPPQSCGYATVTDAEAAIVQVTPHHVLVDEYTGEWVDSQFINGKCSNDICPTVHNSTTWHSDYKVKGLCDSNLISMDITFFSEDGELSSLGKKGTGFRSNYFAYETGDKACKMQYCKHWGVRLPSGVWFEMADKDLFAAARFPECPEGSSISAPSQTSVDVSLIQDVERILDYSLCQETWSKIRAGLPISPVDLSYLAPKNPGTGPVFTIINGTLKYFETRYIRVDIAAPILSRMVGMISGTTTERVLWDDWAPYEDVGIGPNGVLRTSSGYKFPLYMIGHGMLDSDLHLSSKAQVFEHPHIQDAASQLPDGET

B1: LDL-R CR3 domain, isolated (GST cleaved off) (domain or fragment)
chain: not shown
notes: also called CR3 monovalent domain; not shown: GST, N-terminal, cleaved
B2: LDL-R CR2 domain, isolated (GST cleaved off) (domain or fragment)
chain: not shown
notes: also called CR2 monovalent domain; not shown: GST, N-terminal, cleaved

Biological target: T1, VSV Gth, soluble form of the ectodomain …
Experiment: ITC
Conditions: both partners purified

Binder	Kd	stoichiometry N
B1	4.3 µM	1
B2	7.3 µM	1
